Measured values published in patent US6475768B1 (Forskarpatent I Syd AB, priority 2000, dated 2002).

What was measured:
[1] = molecular target: T1, Thermus thermophilus xylose isomerase (xylA), mutant 1024 (M1024) (Thermus thermophilus, UniProt P26997, E372G/F163L); assay: Kinetic characterisation of mutant xylose isomerase 1024 (xylose/glucose isomerase activity, xylitol inhibition); assay type: biochemical; conditions: mutant 1024, crude enzyme, 10 mM MnCl2, pH 7.0
T1 construct: made in house; host or cells: E. coli HB101 (crude lysate)
T1 sequence (P26997 1-387 F163L/E372G): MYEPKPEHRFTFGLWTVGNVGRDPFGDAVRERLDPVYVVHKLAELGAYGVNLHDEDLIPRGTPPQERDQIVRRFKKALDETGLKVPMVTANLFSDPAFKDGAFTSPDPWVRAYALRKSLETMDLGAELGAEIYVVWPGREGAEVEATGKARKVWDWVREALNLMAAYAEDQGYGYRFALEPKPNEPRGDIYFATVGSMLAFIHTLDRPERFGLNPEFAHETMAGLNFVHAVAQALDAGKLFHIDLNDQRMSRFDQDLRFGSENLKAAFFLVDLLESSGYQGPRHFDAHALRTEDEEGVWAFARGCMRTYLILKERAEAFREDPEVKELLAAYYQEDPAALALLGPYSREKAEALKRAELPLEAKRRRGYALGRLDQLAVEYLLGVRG
Procedure: (§1) The cells were harvested by centrifugation in the stationary phase of growth and washed once with ice cold distilled water. Washed cells were resusprended in 100 mM triethanolamine, pH 7.0, 0.5 mg/ml lysozyme (130000 U/mg), 0.25 mg/ml DNase, and 1 mM phenylmethylsulphonyl fluoride (PMSF) in dimethylsulfoxide (DMSO). The suspensions were kept at room temperature for one hour and then on ice for two hours before being put in a freezer at −20° C. The cell lysates were thawed on ice, cell debris was removed by centrifugation (1300 rpm for 15 minutes at 4° C.) and the supernatants were used as the crude enzyme preparations.
(§2) Protein concentration was determined with the Bradford method (Bradford (1976)) using the Pierce protein reagent with bovine serum albumin as standard.
(§3) The reaction was terminated after 10 minutes by adding 150 μl 50% trichloroaceticacid. The reaction mixture was neutralized with 185 μl 2 M Na2CO3. The formed xylulose or fructose was measured on a COBAS MIRA (Roche) automated spectrophotometer via enzymatic reduction with 0.04 or 0.5 units of Sorbitol Dehydrogenase (purchased from Roche), respectively in the presence of 0.15 mM NADH at pH 7.0, 37° C. in 200 μl reaction volume. The rate of disappearance of NADH was followed at 340 nm and the concentration of D-xylulose or D-fructose was calculated using calibration curves. […]

[2] = molecular target: T2, Thermus thermophilus xylose isomerase (xylA), mutant 1026 (M1026) (Thermus thermophilus, UniProt P26997, E372G); assay: Kinetic characterisation of mutant xylose isomerase 1026 (xylose/glucose isomerase activity, xylitol inhibition); assay type: biochemical; conditions: mutant 1026, crude enzyme, 10 mM MnCl2, pH 7.0
T2 construct: made in house; host or cells: E. coli HB101 (crude lysate)
T2 sequence (P26997 1-387 E372G): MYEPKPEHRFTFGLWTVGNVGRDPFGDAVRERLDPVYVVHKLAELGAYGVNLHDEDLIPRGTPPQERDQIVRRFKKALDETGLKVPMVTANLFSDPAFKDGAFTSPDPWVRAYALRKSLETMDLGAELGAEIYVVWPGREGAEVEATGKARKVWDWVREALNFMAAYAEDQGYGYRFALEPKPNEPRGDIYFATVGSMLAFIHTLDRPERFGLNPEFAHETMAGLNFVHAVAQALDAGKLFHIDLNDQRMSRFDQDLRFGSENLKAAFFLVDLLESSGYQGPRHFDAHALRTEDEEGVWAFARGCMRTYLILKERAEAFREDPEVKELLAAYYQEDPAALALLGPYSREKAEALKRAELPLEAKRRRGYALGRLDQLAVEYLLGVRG
Procedure: as §1, §2, §3

[3] = molecular target: Thermus thermophilus xylose isomerase (xylA), mutant 1010 (M1010) (Thermus thermophilus, UniProt P26997); assay type: biochemical; conditions: mutant 1010, crude enzyme, 10 mM MnCl2, pH 7.0
Procedure: as §1, §2
(§4) The reaction was terminated after 10 minutes by adding 150 μl 50% trichloroaceticacid. The reaction mixture was neutralized with 185 μl 2 M Na2CO3. The formed xylulose or fructose was measured on a COBAS MIRA (Roche) automated spectrophotometer via enzymatic reduction with 0.04 or 0.5 units of Sorbitol Dehydrogenase (purchased from Roche), respectively in the presence of 0.15 mM NADH at pH 7.0, 37° C. in 200 μl reaction volume. The rate of disappearance of NADH was followed at 340 nm and the concentration of D-xylulose or D-fructose was calculated using calibration curves. […] The specific activity (U min^−1 mg^−1) was determined from the activity and the protein concentration of the crude enzyme preparations.
(§5) The kinetic parameters Vmax (μmol min^−1 mg^−1) and Km (mM) were determined from Michaelis-Menten plots of specific activities at various substrate concentrations by nonlinear regression analysis with Sigma Plot (SSPS Inc.) software. Typically, duplicate measurements were used to determine the Km value at 6-10 concentrations of the substrate, with a concentration range covering the value of Km.

[4] = molecular target: T3, Thermus thermophilus xylose isomerase, wild type (nucleic acid sequence SEQ ID NO: 2) (Thermus thermophilus, UniProt P26997); conditions: crude enzyme, 10 mM MnCl2, pH 7.0
T3 sequence (P26997 1-387): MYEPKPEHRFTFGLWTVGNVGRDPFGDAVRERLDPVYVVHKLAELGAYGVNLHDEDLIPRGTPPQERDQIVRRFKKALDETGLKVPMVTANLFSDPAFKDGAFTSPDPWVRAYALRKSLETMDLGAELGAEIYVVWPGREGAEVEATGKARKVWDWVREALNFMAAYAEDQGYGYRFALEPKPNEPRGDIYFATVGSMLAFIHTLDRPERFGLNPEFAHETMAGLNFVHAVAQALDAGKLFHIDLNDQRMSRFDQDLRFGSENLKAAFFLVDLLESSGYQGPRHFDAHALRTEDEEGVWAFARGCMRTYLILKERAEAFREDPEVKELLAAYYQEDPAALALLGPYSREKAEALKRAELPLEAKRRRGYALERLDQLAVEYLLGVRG

[5] = substrate: OC1OC[C@@H](O)[C@H](O)[C@H]1O; assay: cells, lysate or membranes named; assay type: biochemical, Thermus thermophilus; conditions: 10 mM MnCl2, pH 7.0
Procedure: as §1, §2
as §4, with “preparations. […] The temperature optimum for the mutants were roughly the same as for the wild type enzyme except for mutant 1021, which had ˜10° C. lower temperature optimum.” for “preparations.”
as §5

[6] = substrate: OC[C@H]1OC(O)[C@H](O)[C@@H](O)[C@@H]1O; assay: cells, lysate or membranes named; assay type: biochemical, Thermus thermophilus; conditions: other: mutant 1021, crude enzyme, 10 mM MnCl2, pH 7.0
Procedure: as §1, §2
as §4, with “preparations. […] The temperature optimum for the mutants were roughly the same as for the wild type enzyme except for mutant 1021, which had ˜10° C. lower temperature optimum.” for “preparations.”
as §5

[7] = Xylose isomerase activity assay of crude enzyme preparations from E. coli HB101; assay type: biochemical
Procedure: The cells were harvested by centrifugation in the stationary phase of growth and washed once with ice cold distilled water. […] The suspensions were kept at room temperature for one hour and then on ice for two hours before being put in a freezer at −20° C. The cell lysates were thawed on ice, cell debris was removed by centrifugation (1300 rpm for 15 minutes at 4° C.) and the supernatants were used as the crude enzyme preparations. Protein concentration was determined with the Bradford method (Bradford (1976)) using the Pierce protein reagent with bovine serum albumin as standard. […] The reaction mixture was neutralized with 185 μl 2 M Na2CO3. […] The rate of disappearance of NADH was followed at 340 nm and the concentration of D-xylulose or D-fructose was calculated using calibration curves. […] The specific activity (U min^−1 mg^−1) was determined from the activity and the protein concentration of the crude enzyme preparations.

[8] = Effect of pH on the activity of the enzymes; assay type: biochemical; conditions: 60° C., 700 mM D-xylose, 10 mM MnCl2, pH range 5-10
Procedure: The effect of pH on the activity of the enzymes was followed in the pH range 5-10 in a buffer prepared by mixing acetate, piperazine-N,N'-bis-(2-ethanolsulphonic acid) (PIPES), […] (HEPES) and glycine at final concentration 50 mM each as described by (Dekker at al. (1992) Appl. Mirobiol. Biotechnol. 36: 727-732). The pH was adjusted at 60° C. with NaOH.

[9] = Effect of different bivalent cations on the activity of EDTA treated enzymes; assay type: biochemical; conditions: EDTA treated enzyme, activity with 10 mM MnCl2 at 60° C. set to 100%
Procedure: Furthermore, the effect of different bivalent cations (10 mM) on the activity of EDTA treated enzymes was investigated. The specific activity with 10 mM MnCl2 at 60° C. was set to 100% for each enzyme.

[10] = substrate: OC1OC[C@@H](O)[C@H](O)[C@H]1O; assay: cells, lysate or membranes named; conditions: other: wild type, crude enzyme, 10 mM MnCl2, pH 7.0
[11] = cited from earlier work
[12] = other: mutant 1021, crude enzyme
[13] = other: mutant 1024, crude enzyme

Molecule: OC[C@H]1OC(O)[C@H](O)[C@@H](O)[C@@H]1O (some centres unmarked) [glucose]
- Vmax glucose [1]: 0.54 µmol/min/mg
- Vmax glucose [2]: 0.18 µmol/min/mg
- Vmax glucose [3]: 0.0034 µmol/min/mg
- Vmax glucose [4]: 0.015 µmol/min/mg

Molecule: OC1OC[C@@H](O)[C@H](O)[C@H]1O (stereo partly drawn) [xylose, D-xylose]
- Vmax xylose [3]: 0.44 µmol/min/mg
- Km ([3]; read-out: Km xylose): 16.6 ± 2.2 mM

B1: Thermus thermophilus xylose isomerase (xylA), mutant 1021 (M1021) (Thermus thermophilus HB8; E372G/V379A) (protein)
chain: MYEPKPEHRFTFGLWTVGNVGRDPFGDAVRERLDPVYVVHKLAELGAYGVNLHDEDLIPRGTPPQERDQIVRRFKKALDETGLKVPMVTANLFSDPAFKDGAFTSPDPWVRAYALRKSLETMDLGAELGAEIYVVWPGREGAEVEATGKARKVWDWVREALNFMAAYAEDQGYGYRFALEPKPNEPRGDIYFATVGSMLAFIHTLDRPERFGLNPEFAHETMAGLNFVHAVAQALDAGKLFHIDLNDQRMSRFDQDLRFGSENLKAAFFLVDLLESSGYQGPRHFDAHALRTEDEEGVWAFARGCMRTYLILKERAEAFREDPEVKELLAAYYQEDPAALALLGPYSREKAEALKRAELPLEAKRRRGYALGRLDQLAAEYLLGVRG
notes: made in house; host or cells: E. coli HB101 (crude lysate)
- Km [5, 12]: 25.1 ± 4.0 mM
- Vmax [5, 12]: 0.84 µmol/min/mg
- Km [6]: 52.0 ± 4.9 mM
- Vmax [6]: 0.13 µmol/min/mg

B2: Thermus thermophilus xylose isomerase (xylA), mutant 1024 (M1024) (Thermus thermophilus HB8; E372G/F163L) (protein)
chain: MYEPKPEHRFTFGLWTVGNVGRDPFGDAVRERLDPVYVVHKLAELGAYGVNLHDEDLIPRGTPPQERDQIVRRFKKALDETGLKVPMVTANLFSDPAFKDGAFTSPDPWVRAYALRKSLETMDLGAELGAEIYVVWPGREGAEVEATGKARKVWDWVREALNLMAAYAEDQGYGYRFALEPKPNEPRGDIYFATVGSMLAFIHTLDRPERFGLNPEFAHETMAGLNFVHAVAQALDAGKLFHIDLNDQRMSRFDQDLRFGSENLKAAFFLVDLLESSGYQGPRHFDAHALRTEDEEGVWAFARGCMRTYLILKERAEAFREDPEVKELLAAYYQEDPAALALLGPYSREKAEALKRAELPLEAKRRRGYALGRLDQLAVEYLLGVRG
notes: as for B1
- Km [5, 13]: 89.4 ± 8.4 mM
- Vmax [5, 13]: 3.08 µmol/min/mg

B3: Thermus thermophilus xylose isomerase, wild type (nucleic acid sequence SEQ ID NO: 2) (Thermus thermophilus HB8) (protein)
chain: MYEPKPEHRFTFGLWTVGNVGRDPFGDAVRERLDPVYVVHKLAELGAYGVNLHDEDLIPRGTPPQERDQIVRRFKKALDETGLKVPMVTANLFSDPAFKDGAFTSPDPWVRAYALRKSLETMDLGAELGAEIYVVWPGREGAEVEATGKARKVWDWVREALNFMAAYAEDQGYGYRFALEPKPNEPRGDIYFATVGSMLAFIHTLDRPERFGLNPEFAHETMAGLNFVHAVAQALDAGKLFHIDLNDQRMSRFDQDLRFGSENLKAAFFLVDLLESSGYQGPRHFDAHALRTEDEEGVWAFARGCMRTYLILKERAEAFREDPEVKELLAAYYQEDPAALALLGPYSREKAEALKRAELPLEAKRRRGYALERLDQLAVEYLLGVRG
- Vmax at 30° C. ([7]; 30° C., 700 mM D-xylose, 10 mM MnCl2, pH 7.0, crude enzyme): 0.014 μmol/min^−1mg^−1
- Temp. optimum ([7]; xylose as substrate, pH 7.0): 85 °C
- pH optimum [8]: 6-7.5
- Co^2+ (% relative activity) ([9]; 10 mM Co2+): 87.9%
- Mg^2+ (% relative activity) ([9]; 10 mM Mg2+): 73.8%
- Km [10]: 3.44 ± 0.4 mM
- Vmax [10]: 0.043 µmol/min/mg
- activity at 30° C. [11]: only trace activity
